Source: patent CN103044552A (INST PATHOGEN BIOLOGY CAMS, dated 2013)

What was measured:
[1] = molecular target: DEC-205 (antigen of the SPR measurement, form not stated) (UniProt O60449); experiment: SPR (CM5 chip coupled with anti-human secondary antibody; gradient 1000-62.5 nM)
[2] = molecular target: T1, DEC-205分子 (human, on monocyte-derived human dendritic cells) (human, UniProt O60449 28-1722); experiment: flow cytometry on human monocyte-derived DC, FITC secondary antibody
T1 construct: whole, on cells; The assay itself used whole human DC
T1 sequence (O60449 28-1722): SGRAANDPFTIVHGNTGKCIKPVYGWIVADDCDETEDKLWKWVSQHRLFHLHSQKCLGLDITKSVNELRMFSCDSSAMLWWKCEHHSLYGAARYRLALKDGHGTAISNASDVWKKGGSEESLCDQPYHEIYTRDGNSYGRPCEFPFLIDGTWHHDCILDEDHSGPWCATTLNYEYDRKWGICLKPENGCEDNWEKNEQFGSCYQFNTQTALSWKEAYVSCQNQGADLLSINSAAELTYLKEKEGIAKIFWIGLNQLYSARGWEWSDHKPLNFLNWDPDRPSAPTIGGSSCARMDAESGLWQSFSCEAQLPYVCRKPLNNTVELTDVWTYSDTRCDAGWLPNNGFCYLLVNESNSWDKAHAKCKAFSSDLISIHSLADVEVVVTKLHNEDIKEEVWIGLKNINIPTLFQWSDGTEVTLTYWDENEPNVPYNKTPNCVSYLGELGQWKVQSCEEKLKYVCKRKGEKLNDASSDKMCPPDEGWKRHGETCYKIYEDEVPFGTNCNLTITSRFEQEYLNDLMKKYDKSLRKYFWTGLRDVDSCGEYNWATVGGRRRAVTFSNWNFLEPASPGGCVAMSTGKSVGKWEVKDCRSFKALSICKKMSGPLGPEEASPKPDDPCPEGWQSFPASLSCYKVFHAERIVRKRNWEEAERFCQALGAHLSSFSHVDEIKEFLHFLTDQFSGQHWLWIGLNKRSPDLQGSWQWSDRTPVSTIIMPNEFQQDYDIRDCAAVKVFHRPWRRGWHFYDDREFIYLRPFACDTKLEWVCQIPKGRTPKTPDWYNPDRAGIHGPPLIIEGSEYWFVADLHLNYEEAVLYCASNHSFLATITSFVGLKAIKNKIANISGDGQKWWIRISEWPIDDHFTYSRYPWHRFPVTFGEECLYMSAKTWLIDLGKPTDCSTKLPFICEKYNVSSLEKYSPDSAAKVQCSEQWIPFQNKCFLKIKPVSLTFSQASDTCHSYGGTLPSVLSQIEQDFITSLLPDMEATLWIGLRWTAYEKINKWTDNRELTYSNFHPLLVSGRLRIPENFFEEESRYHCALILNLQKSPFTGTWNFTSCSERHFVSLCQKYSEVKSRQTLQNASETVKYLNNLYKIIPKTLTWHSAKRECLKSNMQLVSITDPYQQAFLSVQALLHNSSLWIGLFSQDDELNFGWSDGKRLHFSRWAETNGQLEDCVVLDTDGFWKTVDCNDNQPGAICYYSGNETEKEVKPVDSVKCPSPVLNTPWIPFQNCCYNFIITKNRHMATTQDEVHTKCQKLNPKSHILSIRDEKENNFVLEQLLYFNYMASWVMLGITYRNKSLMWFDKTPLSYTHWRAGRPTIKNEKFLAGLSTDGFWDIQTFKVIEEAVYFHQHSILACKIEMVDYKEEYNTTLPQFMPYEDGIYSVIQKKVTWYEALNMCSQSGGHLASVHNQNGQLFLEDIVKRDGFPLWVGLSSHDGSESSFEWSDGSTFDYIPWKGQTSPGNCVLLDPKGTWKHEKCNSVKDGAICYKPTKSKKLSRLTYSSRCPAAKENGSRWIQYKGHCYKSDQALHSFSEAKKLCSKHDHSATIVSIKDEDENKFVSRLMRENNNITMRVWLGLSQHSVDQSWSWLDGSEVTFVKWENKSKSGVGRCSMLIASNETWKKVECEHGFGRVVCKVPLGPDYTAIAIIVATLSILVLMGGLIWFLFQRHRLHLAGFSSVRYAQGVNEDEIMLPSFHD

- Kd [1]: 16.7 nM
- koff [1]: 0.000137 s⁻¹
- kon [1]: 8220 M⁻¹ s⁻¹
- binding result [2]: binds
B1: 人源化的抗树突状细胞表面DEC-205分子的单克隆抗体 (antibody, V domains shown)
VH: EVQLVESGGGLVQPGRSLRLSCAASGFTFSHYYMAWVRQAPGKGLEWVAYISTDGGTTYYRDSVKGRFTISRDNAKSTLYLQMNSLRAEDTAVYYCTTGQPGYNLDYFDYWGQGTLVTVSS
VL: DIQMTQSPSSLSASVGDRVTITCQASQDIGYWLAWYQLKPGKSPQLLIYGATSLADGVPSRFSGSGSGTDYTLTISSLQPEDIATYYCQQASSVPWTFGGGTKLEIK
notes: FITC-labelled in the internalisation assay
